In patent publication US20230348569A1 one finds neutralization potency IC50 and MFI data, which are given here for three substances.

Experiment [1] deals with SARS-CoV-2 spike protein (S-wt, Wuhan-Hu-1, NCBI Accession Number MN908947.3) on VSV-SARS-CoV-2-S pseudoparticles (SARS-CoV-2) (UniProt P0DTC2). The experiment in a line: cell-based or functional assay.
Experiment [2] deals with Bt-MERS.hFc (mAb2664-L2) (MERS-CoV) (UniProt K9N5Q8). The experiment in a line: Luminex bead binding, supernatant.
Experiment [3] addresses MERS.hFc (mAb2664-L1) (MERS-CoV) (UniProt K9N5Q8). The experiment can be described thus: Luminex bead binding, supernatant.
Experiment [4] deals with MERS.mFc (mAb2663-L1) (MERS-CoV) (UniProt K9N5Q8). The experiment in a line: Luminex bead binding, supernatant.

In experiment [1], mAb10987 (antibody) displayed a neutralization potency IC50 of 0.0406 nM. The MFI in experiment [2] worked out at 172 MFI; in experiment [3], 235 MFI; in experiment [4], 196 MFI.
As for mAb10936 (antibody), the neutralization potency IC50 in experiment [1] is 0.111 nM.
For the substance mAb10934 (antibody), the neutralization potency IC50 in experiment [1] is 0.0544 nM.
